This is an account of results in the supplement of paper PMC10724198.

± gives the standard deviation of the averaged measurements.
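Also: PSI is a weighted mean of sequencing reads over stability bins, variants kept only with over 10 reads, mCherry proximal and sfGFP distal, peptide attached via GGGS linker.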

The series deals with Saccharomyces cerevisiae. Put plainly: protein stability index of tFT-peptide fusion (C-terminal peptide) (PSI (0-1 scale)); higher = more stable (slower turnover). As to conditions: genetic background: wild type; temperature: 30 C.
As to SPPRSVSVGVHK, the protein stability index is 0.637 ± 0.03.
Regarding SPPSPAFTPAPF, the protein stability index was 0.669 ± 0.077.
In turn, SPPTRAPISSIS showed a protein stability index of 0.733 ± 0.0087.
Under SPPVRLPSASTV stands 0.681 ± 0.036; under SPPVTASLCLFS, 0.692 ± 0.016.
Under SPRFVPPPAILR stands 0.558 ± 0.0088; under SPRFYSFRPSPP, 0.695 ± 0.019.
Under SPRGLQSAPSGI stands 0.7399 ± 0.0057; under SPRPAPPRSTPP, 0.67 ± 0.063; under SPSAVPPALLYS, 0.747 ± 0.2.
In the case of SPSGLPLHFSFL, the protein stability index came to 0.704 ± 0.012.
SPSLPPLPRSPR displayed a protein stability index of 0.68 ± 0.053.
SPSPPLPSPRPP gave a protein stability index of 0.594 ± 0.094.
SPSRPILRPRVV returned a protein stability index of 0.635 ± 0.02.
Under SPTPSPCIPSPP stands 0.701 ± 0.0089; under SPTRALYISFFY, 0.655 ± 0.075.
Under SPYLGSALPPDR stands 0.628 ± 0.07.
Under SQCGSLQIGRHL stands 0.714 ± 0.052; under SQLERSNHGWVR, 0.651 ± 0.064; under SQMGRGRQRGDR, 0.741 ± 0.024.
In turn, SQSPPTSPAPHD yielded a protein stability index of 0.706 ± 0.016.
Under SQTIRTGGLCHL stands 0.886 ± 0.041; under SQWGRVTMNLCG, 0.706 ± 0.012.
Under SRAARLPLFYFD stands 0.675 ± 0.014; under SRCSAGVASGVL, 0.636 ± 0.0069.
Under SRCSEPVGGGGA stands 0.704 ± 0.085.
SRGAIGGSACFR registered a protein stability index of 0.652 ± 0.037.
SRGRILAVRNTT displayed a protein stability index of 0.713 ± 0.021.
Under SRGSTGERGRGK stands 0.669 ± 0.027.
As to SRIASKNRKRKR, the protein stability index worked out at 0.774 ± 0.024.
Under SRKKDEGEYHRK stands 0.68 ± 0.036.
In turn, SRLPSPFPSPPL had a protein stability index of 0.737 ± 0.019.
Under SRLRITIRNVHS stands 0.629 ± 0.048; under SRPFLPPSPRPA, 0.757 ± 0.11; under SRPLLLLPCLLP, 0.643 ± 0.014.
As to SRPLPPPLPPPP, the protein stability index came out at 0.628 ± 0.025.
In turn, SRPPSPHPLPPP returned a protein stability index of 0.656 ± 0.027.
Under SRRERALGQQPI stands 0.679 ± 0.011; under SRRLAFSTVLPA, 0.664 ± 0.035; under SRRWRPDSSRIQ, 0.667 ± 0.1.
SRSHSPLCPSFA gave a protein stability index of 0.604 ± 0.026.
In turn, SRTLYSHLLFFP yielded a protein stability index of 0.66 ± 0.0097.
Under SRTPLASTPPHR stands 0.761 ± 0.11.
Regarding SRTSRGPPFSSS, the protein stability index was 0.688 ± 0.043.
Under SRVEVEVKIGFQ stands 0.6331 ± 0.0061; under SRVIFSQSLSVP, 0.654 ± 0.038.
SRVRTIVRNGSR came in with a protein stability index of 0.777 ± 0.11.
SRVSRGEWGVGI returned a protein stability index of 0.659 ± 0.023.
Under SRVVTSRLVLSS stands 0.606 ± 0.017.
Under SRVWVGQMIRGR stands 0.664 ± 0.019; under SSERVLVRRRGS, 0.566 ± 0.12.
For the sequence SSFGIVWKKDAI, the protein stability index was 0.736 ± 0.053.
Under SSGAIKPDFRMA stands 0.7446 ± 0.005.
Under SSGSRCQQKIRY stands 0.66 ± 0.11; under SSLGNSFYLSPH, 0.683 ± 0.033.
With SSLPRLGSSPRR, the protein stability index is 0.66 ± 0.019.
Under SSLPSSLSPLTS stands 0.699 ± 0.024; under SSLRSFPLLEHT, 0.6857 ± 0.0012; under SSLSFHPLPLAP, 0.695 ± 0.03.
Under SSLSPGFPLPSS stands 0.6989 ± 0.0014; under SSLTCLLFPPGY, 0.695 ± 0.012; under SSNKSKNNHSNM, 0.688 ± 0.031.
SSNVTVLGVLYC showed a protein stability index of 0.6973 ± 0.0049.
The sequence SSPAPPPPSPAS displayed a protein stability index of 0.744 ± 0.043.
Under SSPAYPYWTRIF stands 0.777 ± 0.14; under SSPFPPLTTPSP, 0.7245 ± 0.0044; under SSPFPVPLSRPS, 0.6759 ± 0.0032.
Under SSPLTPAPLCSS stands 0.702 ± 0.1; under SSPLYSLLVLFQ, 0.54 ± 0.037.
Turning to SSPPFPLSLPLY, the protein stability index turned out to be 0.682 ± 0.0017.
For SSPTSSAPPPFL, the protein stability index came out at 0.697 ± 0.022.
Sequence SSPYPGNVVTST had a protein stability index of 0.7133 ± 0.0015.
Under SSRAGVRRPHSR stands 0.685 ± 0.053; under SSRCRGYLFVDG, 0.738 ± 0.043; under SSRELVDGVGIA, 0.763 ± 0.068.
Under SSRVALRIPGIG stands 0.678 ± 0.024; under SSRVWPRRRSTA, 0.634 ± 0.052; under SSSLSRLIPRDV, 0.774 ± 0.062.
Under SSSPFVSDFLTL stands 0.673 ± 0.042; under SSSPLPPLRLCL, 0.743 ± 0.041.
